Assay in all cases: cell-based or functional assay
For assay [1], the target named is human glucose-dependent insulinotropic polypeptide receptor (GIP receptor) (human) (UniProt P48546).
In assay [2] the target is human glucagon-like peptide-1 receptor (GLP-1R) (human) (UniProt P43220).
Assay [3] concerns the target human glucose-dependent insulinotropic polypeptide receptor (GIP receptor) (human) (UniProt P48546). This is another data set of the same source.
The target of assay [4] is human glucagon-like peptide-1 receptor (GLP-1R) (human) (UniProt P43220). This is another data set of the same source.
The target of assay [5] is T1, human glucagon-like peptide-1 receptor (GLP-1R) (human, UniProt P43220 24-463).
In assay [6] the target is T2, human glucose-dependent insulinotropic polypeptide receptor (GIP receptor) (human, UniProt P48546 22-466).
T2 sequence (looked up): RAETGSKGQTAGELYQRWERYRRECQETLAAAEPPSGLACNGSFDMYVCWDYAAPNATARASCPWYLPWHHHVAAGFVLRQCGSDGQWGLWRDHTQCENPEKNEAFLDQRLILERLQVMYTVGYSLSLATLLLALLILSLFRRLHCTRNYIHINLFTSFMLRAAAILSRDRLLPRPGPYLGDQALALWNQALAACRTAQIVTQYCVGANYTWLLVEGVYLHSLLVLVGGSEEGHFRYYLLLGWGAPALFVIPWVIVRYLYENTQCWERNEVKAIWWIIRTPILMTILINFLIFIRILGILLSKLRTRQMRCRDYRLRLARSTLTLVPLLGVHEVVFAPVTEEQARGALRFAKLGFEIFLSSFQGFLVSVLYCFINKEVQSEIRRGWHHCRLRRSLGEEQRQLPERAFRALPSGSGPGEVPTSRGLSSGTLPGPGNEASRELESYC

In assay [7] the target is T1, human glucagon-like peptide-1 receptor …. The source holds these as a separate data set.
The target in assay [8] is T2, human glucose-dependent insulinotropic …. The source holds these as a separate data set.

Twelve molecules from patent US20230190879A1 (JIANGSU HENGRUI PHARMACEUTICALS, published 2023) can be followed below.

Read-outs that look alike come from different tables or passages of the source. *1 amine or outer side, *2 acyl side, *3 side chain or, on linkers, in order; H or OH if unused. Where no end group is shown, it is not given here. Side-chain parts run from the residue outwards. [ ]: non-standard residue; d: D form. γGlu = O=C(O)[C@H](CCC(=O)[*:2])N[*:1]; AEEA = NCCOCCOCC(=O)O; Aib = CC(C)(N)C(=O)O

T1 sequence (P43220 24-463): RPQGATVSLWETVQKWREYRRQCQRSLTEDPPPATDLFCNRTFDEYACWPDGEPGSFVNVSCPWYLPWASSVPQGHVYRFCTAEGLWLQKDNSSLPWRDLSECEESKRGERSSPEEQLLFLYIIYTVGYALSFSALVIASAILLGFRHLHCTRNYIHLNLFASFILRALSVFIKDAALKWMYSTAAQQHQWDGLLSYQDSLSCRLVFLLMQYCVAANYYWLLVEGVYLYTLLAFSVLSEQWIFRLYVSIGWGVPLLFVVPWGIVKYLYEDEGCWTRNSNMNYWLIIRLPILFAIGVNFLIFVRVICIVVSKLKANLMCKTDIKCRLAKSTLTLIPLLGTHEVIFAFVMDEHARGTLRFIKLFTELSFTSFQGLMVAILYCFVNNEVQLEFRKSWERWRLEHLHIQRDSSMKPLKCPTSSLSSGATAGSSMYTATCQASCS
human glucagon-like peptide-1 receptor (GLP-1R) (human), sequence (P43220 24-463): as above

Turning to “Natural GIP (from UniProt P09681 52-93) (ligand)”, the Human GIP receptor activity (EC50 nM); cAMP HTRF in CHO-K1 cells transfected with hGIP receptor in assay [1] amounted to 0.006 nM.
On to LY3298176 (peptide), for which the Human GIP receptor activity (EC50 nM); cAMP HTRF in CHO-K1 cells transfected with hGIP receptor came out at 0.031 nM in assay [1] and 0.056 nM in assay [3]. The values for the Human GLP-1R activity (EC50 nM); cAMP HTRF in CHO-K1/GLP-1R/CRE-luc cells in assay [2] and in assay [4] were 0.078 nM and 0.13 nM, respectively.

B1: compound 18# (peptide)
peptide: Y[Aib]EGTFTSDYSIYK([AEEA-AEEA-γGlu-C20‑OH])EKIAAQEFVNWLLAGGPSSGAPPPS-NH2
Turning to B1, in assay [5], the “Human GLP-1R activity (EC50 nM); cAMP HTRF in CHO-K1/GLP-1R/CRE-luc cells” value (“Human GLP-1R activity (EC50 nM)” for short) came out at 0.013 nM. For the same molecule, the “Human GIP receptor activity (EC50 nM); cAMP HTRF in CHO-K1 cells transfected with hGIP receptor” value (“Human GIP receptor activity (EC50 nM)” for short) in assay [6] amounted to 0.06 nM.

B2: compound 16# (peptide)
peptide: Y[Aib]EGTFTSDYSIYK([AEEA-AEEA-γGlu-C20‑OH])EKIAAQEFINWLLAGGPSSGAPPPS-NH2
With B2, the “Human GLP-1R activity (EC50 nM)” value in assay [5] worked out at 0.029 nM. Besides, in assay [6], the “Human GIP receptor activity (EC50 nM)” value stood at 0.095 nM.

B3: compound 14# (peptide)
peptide: Y[Aib]EGTFTSDYSIYK([AEEA-AEEA-γGlu-C20‑OH])EKIAAQEFINWLIAGGPSSGAPPPS-NH2
For B3, in assay [5], the “Human GLP-1R activity (EC50 nM)” value is 0.013 nM. The “Human GIP receptor activity (EC50 nM)” value in assay [6] worked out at 0.13 nM.

B4: compound 17# (peptide)
peptide: Y[Aib]EGTFTSDYSIYK([AEEA-AEEA-γGlu-C20‑OH])ERIAAQEFVNWLLAGGPSSGAPPPS-NH2
Regarding B4, in assay [5], the “Human GLP-1R activity (EC50 nM)” value came to 0.022 nM. Also, the “Human GIP receptor activity (EC50 nM)” value in assay [6] came to 0.11 nM.

B5: compound 10# (peptide)
peptide: Y[Aib]EGTFTSDYSIYLEK([AEEA-AEEA-γGlu-C20‑OH])IAAQEFINWLIAGGPSSGAPPPS-NH2
Regarding B5, in assay [5], the “Human GLP-1R activity (EC50 nM)” value was found to be 0.065 nM. For the same molecule, the “Human GIP receptor activity (EC50 nM)” value in assay [6] was 0.056 nM.

B6: compound 7# (peptide)
peptide: Y[Aib]EGTFTSDYSIYK([AEEA-AEEA-γGlu-C20‑OH])DKIAAQEFVNWLLAGGPSSGAPPPS-NH2
Consider B6, for which the “Human GLP-1R activity (EC50 nM)” value in assay [7] was found to be 0.021 nM. Further, the “Human GIP receptor activity (EC50 nM)” value in assay [8] is 0.11 nM.

B7: compound 9# (peptide)
peptide: Y[Aib]EGTFTSDYSIYLEK([AEEA-AEEA-γGlu-C20‑OH])IAAQEFVNWLIAGGPSSGAPPPS-NH2
Consider B7, for which, in assay [5], the “Human GLP-1R activity (EC50 nM)” value was 0.049 nM. The “Human GIP receptor activity (EC50 nM)” value in assay [6] is 0.04 nM.

B8: compound 12# (peptide)
peptide: Y[Aib]EGTFTSDYSIYK([AEEA-AEEA-γGlu-C20‑OH])EKIAAQEFVNWLIAGGPSSGAPPPS-NH2
Consider B8, for which the “Human GLP-1R activity (EC50 nM)” value in assay [5] amounted to 0.03 nM. Also, the “Human GIP receptor activity (EC50 nM)” value in assay [6] worked out at 0.17 nM.

B9: compound 13# (peptide)
peptide: Y[Aib]EGTFTSDYSIYK([AEEA-AEEA-γGlu-C20‑OH])ERIAAQEFVNWLIAGGPSSGAPPPS-NH2
For the molecule B9, the “Human GLP-1R activity (EC50 nM)” value in assay [5] is 0.017 nM. The “Human GIP receptor activity (EC50 nM)” value in assay [6] was 0.13 nM.

B10: compound 15# (peptide)
peptide: Y[Aib]EGTFTSDYSIYK([AEEA-AEEA-γGlu-C20‑OH])ERIAAQEFINWLIAGGPSSGAPPPS-NH2
For B10, the “Human GLP-1R activity (EC50 nM)” value in assay [5] amounted to 0.015 nM. Besides, in assay [6], the “Human GIP receptor activity (EC50 nM)” value worked out at 0.23 nM.
